Values of other authors as cited in paper PMC5414288, “^99mTc-radiolabeled GE11-modified peptide for ovarian tumor targeting” (DARU Journal of Pharmaceutical Sciences, 2017).

Molecular target: EGFR (Homo sapiens) (UniProt P00533)

## GE11
  Kd: 22 nM
